Tests used:
Assay in all cases: two-hybrid library CCmax;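 further: natural log of median RNA to DNA barcode read ratio; higher means stronger binding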
APC6088-AA = target: T1, APC6088-AA; details: mean of both orientations
T1 chain: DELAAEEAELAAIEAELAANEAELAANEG

APC3265-AA = target: T2, APC3265-AA; details: mean of both orientations
T2 chain: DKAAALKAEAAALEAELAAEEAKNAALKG

APC2981-AA = target: T3, APC2981-AA; details: mean of both orientations
T3 chain: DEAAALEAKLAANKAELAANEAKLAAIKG

APC9806-AA = target: T4, APC9806-AA; details: mean of both orientations
T4 chain: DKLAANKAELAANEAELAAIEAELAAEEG

APC9182-AA = target: T5, APC9182-AA; details: mean of both orientations
T5 chain: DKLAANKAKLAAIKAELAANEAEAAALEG

APC2811-AA = target: T6, APC2811-AA; details: mean of both orientations
T6 chain: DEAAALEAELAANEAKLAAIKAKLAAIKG

APC7524-AA = target: T7, APC7524-AA; details: mean of both orientations
T7 chain: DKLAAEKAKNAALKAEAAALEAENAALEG

APC5531-AA = target: T8, APC5531-AA; details: mean of both orientations
T8 chain: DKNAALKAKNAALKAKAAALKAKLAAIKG

APC5009-AA = target: T9, APC5009-AA; details: mean of both orientations
T9 chain: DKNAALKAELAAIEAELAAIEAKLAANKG

APC9141-AA = target: T10, APC9141-AA; details: mean of both orientations
T10 chain: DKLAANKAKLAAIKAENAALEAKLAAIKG

APC4100-AA = target: T11, APC4100-AA; details: mean of both orientations
T11 chain: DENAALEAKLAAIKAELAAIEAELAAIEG

APC4336-AA = target: T12, APC4336-AA; details: mean of both orientations
T12 chain: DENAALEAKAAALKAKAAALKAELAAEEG

APC2474-AA = target: T13, APC2474-AA
T13 chain: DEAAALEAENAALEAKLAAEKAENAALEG

APC542-AA = target: T14, APC542-AA; details: mean of both orientations
T14 chain: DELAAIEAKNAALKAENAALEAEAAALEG

APC2556-AA = target: T15, APC2556-AA; details: mean of both orientations
T15 chain: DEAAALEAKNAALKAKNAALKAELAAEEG

APC8401-AA = target: T16, APC8401-AA; details: mean of both orientations
T16 chain: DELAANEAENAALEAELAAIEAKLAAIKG

APC9291-AA = target: T17, APC9291-AA; details: mean of both orientations
T17 chain: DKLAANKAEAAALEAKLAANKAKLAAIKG

APC3323-AA = target: T18, APC3323-AA; details: mean of both orientations
T18 chain: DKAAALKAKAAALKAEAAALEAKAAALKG

APC2724-AA = target: T19, APC2724-AA; details: mean of both orientations
T19 chain: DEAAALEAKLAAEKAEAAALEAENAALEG

APC3354-AA = target: T20, APC3354-AA; details: mean of both orientations
T20 chain: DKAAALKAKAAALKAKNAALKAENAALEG

APC2543-AA = target: T21, APC2543-AA; details: mean of both orientations
T21 chain: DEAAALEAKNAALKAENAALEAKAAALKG

APC8516-AA = target: T22, APC8516-AA; details: mean of both orientations
T22 chain: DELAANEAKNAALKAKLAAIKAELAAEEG

APC3881-AA = target: T23, APC3881-AA; details: mean of both orientations
T23 chain: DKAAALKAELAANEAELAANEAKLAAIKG

4H2883-AA = target: T24, 4H2883-AA; details: mean of both orientations
T24 chain: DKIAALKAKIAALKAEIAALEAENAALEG

4H3112-AA = target: T25, 4H3112-AA; details: mean of both orientations
T25 chain: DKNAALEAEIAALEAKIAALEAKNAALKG

4H2078-AA = target: T26, 4H2078-AA; details: mean of both orientations
T26 chain: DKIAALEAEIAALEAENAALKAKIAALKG

4H566-AA = target: T27, 4H566-AA; details: mean of both orientations
T27 chain: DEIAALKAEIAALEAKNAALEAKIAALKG

4H678-AA = target: T28, 4H678-AA; details: mean of both orientations
T28 chain: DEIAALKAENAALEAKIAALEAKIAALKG

4H429-AA = target: T29, 4H429-AA; details: mean of both orientations
T29 chain: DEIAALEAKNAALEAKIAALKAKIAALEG

4H794-AA = target: T30, 4H794-AA; details: mean of both orientations
T30 chain: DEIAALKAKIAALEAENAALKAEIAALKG

4H2190-AA = target: T31, 4H2190-AA; details: mean of both orientations
T31 chain: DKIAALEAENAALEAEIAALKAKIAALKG

4H454-AA = target: T32, 4H454-AA; details: mean of both orientations
T32 chain: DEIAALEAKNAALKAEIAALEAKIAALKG

4H2617-AA = target: T33, 4H2617-AA; details: mean of both orientations
T33 chain: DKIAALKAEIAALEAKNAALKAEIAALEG

4H2277-AA = target: T34, 4H2277-AA; details: mean of both orientations
T34 chain: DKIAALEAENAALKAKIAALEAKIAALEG

4H3427-AA = target: T35, 4H3427-AA; details: mean of both orientations
T35 chain: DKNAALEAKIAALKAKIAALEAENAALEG

4H2949-AA = target: T36, 4H2949-AA; details: mean of both orientations
T36 chain: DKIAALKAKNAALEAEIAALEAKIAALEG

4H2837-AA = target: T37, 4H2837-AA; details: mean of both orientations
T37 chain: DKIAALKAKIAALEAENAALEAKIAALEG

4H1636-AA = target: T38, 4H1636-AA; details: mean of both orientations
T38 chain: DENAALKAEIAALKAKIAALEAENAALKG

4H2575-AA = target: T39, 4H2575-AA; details: mean of both orientations
T39 chain: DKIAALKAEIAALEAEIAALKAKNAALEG

4H2466-AA = target: T40, 4H2466-AA; details: mean of both orientations
T40 chain: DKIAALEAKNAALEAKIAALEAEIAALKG

4H1867-AA = target: T41, 4H1867-AA; details: mean of both orientations
T41 chain: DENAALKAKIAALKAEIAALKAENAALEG

4H605-AA = target: T42, 4H605-AA; details: mean of both orientations
T42 chain: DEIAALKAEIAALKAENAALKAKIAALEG

4H2944-AA = target: T43, 4H2944-AA; details: mean of both orientations
T43 chain: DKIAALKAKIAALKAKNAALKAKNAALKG

4H48-AA = target: T44, 4H48-AA; details: mean of both orientations
T44 chain: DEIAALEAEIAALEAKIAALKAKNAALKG

4H2151-AA = target: T45, 4H2151-AA; details: mean of both orientations
T45 chain: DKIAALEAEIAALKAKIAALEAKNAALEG

4H906-AA = target: T46, 4H906-AA; details: mean of both orientations
T46 chain: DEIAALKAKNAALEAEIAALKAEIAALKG

4H2354-AA = target: T47, 4H2354-AA; details: mean of both orientations
T47 chain: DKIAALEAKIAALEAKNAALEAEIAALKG

4H3627-AA = target: T48, 4H3627-AA; details: mean of both orientations
T48 chain: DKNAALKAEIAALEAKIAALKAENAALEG

4H3655-AA = target: T49, 4H3655-AA; details: mean of both orientations
T49 chain: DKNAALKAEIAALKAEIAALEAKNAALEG

4H3921-AA = target: T50, 4H3921-AA; details: mean of both orientations
T50 chain: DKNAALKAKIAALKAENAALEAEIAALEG

4H317-AA = target: T51, 4H317-AA; details: mean of both orientations
T51 chain: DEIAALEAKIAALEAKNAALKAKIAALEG

4H1552-AA = target: T52, 4H1552-AA
T52 chain: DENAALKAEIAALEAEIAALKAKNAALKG

4H2754-AA = target: T53, 4H2754-AA; details: mean of both orientations
T53 chain: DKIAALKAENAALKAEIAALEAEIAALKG

4H881-AA = target: T54, 4H881-AA; details: mean of both orientations
T54 chain: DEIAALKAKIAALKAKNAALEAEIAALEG

4H2165-AA = target: T55, 4H2165-AA; details: mean of both orientations
T55 chain: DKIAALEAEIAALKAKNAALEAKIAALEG

4H3343-AA = target: T56, 4H3343-AA; details: mean of both orientations
T56 chain: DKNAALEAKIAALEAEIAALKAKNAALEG

4H2642-AA = target: T57, 4H2642-AA; details: mean of both orientations
T57 chain: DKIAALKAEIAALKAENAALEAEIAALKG

4H780-AA = target: T58, 4H780-AA; details: mean of both orientations
T58 chain: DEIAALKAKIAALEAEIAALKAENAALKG

4H234-AA = target: T59, 4H234-AA; details: mean of both orientations
T59 chain: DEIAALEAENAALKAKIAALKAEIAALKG

4H335-AA = target: T60, 4H335-AA
T60 chain: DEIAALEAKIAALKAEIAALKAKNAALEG

4H993-AA = target: T61, 4H993-AA; details: mean of both orientations
T61 chain: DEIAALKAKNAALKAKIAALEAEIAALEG

4H3606-AA = target: T62, 4H3606-AA; details: mean of both orientations
T62 chain: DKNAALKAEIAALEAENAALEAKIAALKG

4H342-AA = target: T63, 4H342-AA; details: mean of both orientations
T63 chain: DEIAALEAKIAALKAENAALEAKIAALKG

4H717-AA = target: T64, 4H717-AA; details: mean of both orientations
T64 chain: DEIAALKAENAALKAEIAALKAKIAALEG

4H2505-AA = target: T65, 4H2505-AA; details: mean of both orientations
T65 chain: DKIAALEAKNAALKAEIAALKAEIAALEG

4H2729-AA = target: T66, 4H2729-AA; details: mean of both orientations
T66 chain: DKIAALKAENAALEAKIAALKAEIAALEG

4H2393-AA = target: T67, 4H2393-AA; details: mean of both orientations
T67 chain: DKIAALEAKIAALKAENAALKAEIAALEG

4H3844-AA = target: T68, 4H3844-AA; details: mean of both orientations
T68 chain: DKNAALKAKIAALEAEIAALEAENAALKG

## DEAAALEAENAALEAKLAAEKAENAALEG [APC2474-AA]
APC6088-AA
  interaction score: -1.54
APC3265-AA
  interaction score: -1.52
APC2981-AA
  interaction score: -1.45
APC9806-AA
  interaction score: -1.64
APC9182-AA
  interaction score: -1.69
APC2811-AA
  interaction score: -1.58
APC7524-AA
  interaction score: -2.27
APC5531-AA
  interaction score: -1.71
APC5009-AA
  interaction score: -1.39
APC9141-AA
  interaction score: -2.1
APC4100-AA
  interaction score: -1.97
APC4336-AA
  interaction score: -1.67
APC2474-AA
  interaction score: -1.69
APC542-AA
  interaction score: -1.4
APC2556-AA
  interaction score: -1.49
APC8401-AA
  interaction score: -1.53
APC9291-AA
  interaction score: -1.71
APC3323-AA
  interaction score: -1.45
APC2724-AA
  interaction score: -1.93
APC3354-AA
  interaction score: -1.35
APC2543-AA
  interaction score: -1.61
APC8516-AA
  interaction score: -1.93
APC3881-AA
  interaction score: -1.83

## DENAALKAEIAALEAEIAALKAKNAALKG [4H1552-AA]
4H2883-AA
  interaction score: 2.2
4H3112-AA
  interaction score: -0.246
4H2078-AA
  interaction score: -0.958
4H566-AA
  interaction score: -0.817
4H678-AA
  interaction score: -0.931
4H429-AA
  interaction score: -0.746
4H794-AA
  interaction score: -1.55
4H2190-AA
  interaction score: -0.831
4H454-AA
  interaction score: -0.754
4H2617-AA
  interaction score: -0.622
4H2277-AA
  interaction score: -1.3
4H3427-AA
  interaction score: 1.64
4H2949-AA
  interaction score: -1.42
4H2837-AA
  interaction score: -0.547
4H1636-AA
  interaction score: 0.254
4H2575-AA
  interaction score: -0.206
4H2466-AA
  interaction score: -1.4
4H1867-AA
  interaction score: 2.28
4H605-AA
  interaction score: -1.23
4H2944-AA
  interaction score: -1.04
4H48-AA
  interaction score: 0.191
4H2151-AA
  interaction score: -0.598
4H906-AA
  interaction score: -1.18
4H2354-AA
  interaction score: -1.41
4H3627-AA
  interaction score: 1.45
4H3655-AA
  interaction score: 1.01
4H3921-AA
  interaction score: -0.743
4H317-AA
  interaction score: 0.795
4H1552-AA
  interaction score: 0.838
4H2754-AA
  interaction score: -0.498
4H881-AA
  interaction score: -0.939
4H2165-AA
  interaction score: -1.44
4H3343-AA
  interaction score: 0.455
4H2642-AA
  interaction score: 0.755
4H780-AA
  interaction score: 0.0206
4H234-AA
  interaction score: 1.6
4H335-AA
  interaction score: 1.76
4H993-AA
  interaction score: -0.53
4H3606-AA
  interaction score: -0.722
4H342-AA
  interaction score: -0.367
4H717-AA
  interaction score: -0.949
4H2505-AA
  interaction score: -0.681
4H2729-AA
  interaction score: -0.018
4H2393-AA
  interaction score: -1.36
4H3844-AA
  interaction score: 1.43

Source: PMC10397247
